# According to patent US20210309745A1 (TAYU HUAXIA BIOTECH MEDICAL GROUP, published 2021):
# B1: anti-PD-L1 IgG1 (parental antibody of Example 3) (antibody, V domains shown)
# VH: EVQLQQSGAELVKPGASVKLSCTASGFNIKDTYMYWVKQRPEQGLECIGRIDPANDNTKYDPKFQGKATITADTSSNTAYVQLASLTSEDTAVYYCARAKNLLNYFDYWGQGTTLTVSS
# VL: DIQMTQSPSSLSASLGERVTLSCRASQEISGYLSWLQQKPDGTIKRLIYATSTLDSGVPKRFSGSRSGSDYSLTISSLESEDFADYYCLQYAIYPLTFGAGTKLELKR
# notes: IgG1; also called parental control antibody
# Biological target: hPD-L1 (antigen of the Fortebio Octet assay) (human, UniProt Q9NZQ7 19-238, limits assumed)
# Experiment: BLI, Fortebio Octet; format not stated
# Text: The anti-hPD-L1 scFv-hFc Wt and scFv-hFc Mt antibodies were identified by SDS Page Gel […]. […] The binding affinities of the scFv-hFc antibodies to hPD-L1, as compared to that of the parental antibody were examined by FACS and the results are shown in FIG. 7. […] The binding affinities and kinetics of the scFv-hFc antibodies (scFv-hFc Wt and scFv-hFc Mt) to hPD-L1, as compared to that of the parental antibody (anti-PD-L1 IgG1), were further analyzed using the Fortebio Octet system.
# hPD-L1 (antigen of the Fortebio Octet assay), sequence (Q9NZQ7 19-238 limits assumed): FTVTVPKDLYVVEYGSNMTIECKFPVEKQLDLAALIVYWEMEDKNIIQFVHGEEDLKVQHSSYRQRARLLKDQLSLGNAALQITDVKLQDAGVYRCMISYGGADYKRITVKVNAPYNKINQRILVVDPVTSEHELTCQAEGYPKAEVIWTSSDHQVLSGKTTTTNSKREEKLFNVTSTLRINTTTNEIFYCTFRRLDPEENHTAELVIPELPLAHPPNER
binder,measurement,value
B1,koff,2.72e-05 s⁻¹
